{
  "source": "patent US20250326823A1",
  "assay_in_all_cases": "cell-based or functional assay",
  "key": {"[1]": {"target": "SARS-CoV-2 spike (S) protein, variant JN.1.13.1 (SARS-CoV-2)"}, "[2]": {"target": "SARS-CoV-2 spike (S) protein, variant KP.2 (SARS-CoV-2)"}, "[3]": {"target": "SARS-CoV-2 spike (S) protein, variant KP.2.3 (SARS-CoV-2)"}, "[4]": {"target": "SARS-CoV-2 spike (S) protein, variant LB.1 (SARS-CoV-2)"}, "[5]": {"target": "SARS-CoV-2 spike (S) protein, D614G (SARS-CoV-2) (UniProt P0DTC2)"}, "[6]": {"target": "SARS-CoV-2 spike (S) protein, variant BA.2.86 (SARS-CoV-2)"}, "[7]": {"target": "SARS-CoV-2 spike (S) protein, variant CH.1.1 (SARS-CoV-2)"}, "[8]": {"target": "SARS-CoV-2 spike (S) protein, variant EG.5.1 (SARS-CoV-2)"}, "[9]": {"target": "SARS-CoV-2 spike (S) protein, variant JN.1 (SARS-CoV-2)"}, "[10]": {"target": "SARS-CoV-2 spike (S) protein, variant KP.2 (SARS-CoV-2)", "remark": "listed apart in the source"}, "[11]": {"target": "SARS-CoV-2 spike (S) protein, variant KP.2.3 (SARS-CoV-2)", "remark": "listed apart in the source"}, "[12]": {"target": "SARS-CoV-2 spike (S) protein, variant KP.3 (SARS-CoV-2)"}, "[13]": {"target": "SARS-CoV-2 spike (S) protein, variant KP.3.1.1 (SARS-CoV-2)"}, "[14]": {"target": "SARS-CoV-2 spike (S) protein, variant LB.1 (SARS-CoV-2)", "remark": "listed apart in the source"}, "[15]": {"target": "SARS-CoV-2 spike (S) protein, variant XEC (SARS-CoV-2)"}, "[16]": {"target": "SARS-CoV-2 D614G spike (S) protein (SARS-CoV-2) (UniProt P0DTC2)"}, "[17]": {"target": "SARS-CoV-2 spike (S) protein, variant BA.1 (SARS-CoV-2) (UniProt P0DTC2)"}, "[18]": {"target": "SARS-CoV-2 spike (S) protein, variant BA.4/5 (SARS-CoV-2) (UniProt P0DTC2)"}, "[19]": {"target": "SARS-CoV-2 spike (S) protein, variant BQ.1.1 (SARS-CoV-2) (UniProt P0DTC2)"}, "[20]": {"target": "SARS-CoV-2 spike (S) protein, variant FL.1.5.1 (SARS-CoV-2)"}, "[21]": {"target": "SARS-CoV-2 spike (S) protein, variant HK.3 (SARS-CoV-2)"}, "[22]": {"target": "SARS-CoV-2 spike (S) protein, variant HV.1 (SARS-CoV-2)"}, "[23]": {"target": "SARS-CoV-2 spike (S) protein, variant JF.1 (SARS-CoV-2)"}, "[24]": {"target": "SARS-CoV-2 spike (S) protein, variant XBB.1 (SARS-CoV-2) (UniProt P0DTC2)"}, "[25]": {"target": "SARS-CoV-2 spike (S) protein, variant XBB.1.16 (SARS-CoV-2) (UniProt P0DTC2)"}, "[26]": {"target": "SARS-CoV-2 spike (S) protein, variant XBB.1.5 (SARS-CoV-2) (UniProt P0DTC2)"}, "[27]": {"target": "SARS-CoV-2 spike (S) protein, variant XBC.1 (SARS-CoV-2) (UniProt P0DTC2)"}},
  "data": [
    {"substance": "ADG20 (antibody)", "values": [
      {"measurement": "pseudovirus neutralization IC50", "setting": "[1]", "value": "> 67000", "unit": "pM"},
      {"measurement": "pseudovirus neutralization IC80", "setting": "[1]", "value": "> 67000", "unit": "pM"},
      {"measurement": "pseudovirus neutralization IC50", "setting": "[2]", "value": "> 67000", "unit": "pM"},
      {"measurement": "pseudovirus neutralization IC80", "setting": "[2]", "value": "> 67000", "unit": "pM"},
      {"measurement": "pseudovirus neutralization IC50", "setting": "[3]", "value": "> 67000", "unit": "pM"},
      {"measurement": "pseudovirus neutralization IC80", "setting": "[3]", "value": "> 67000", "unit": "pM"},
      {"measurement": "pseudovirus neutralization IC50", "setting": "[4]", "value": "> 67000", "unit": "pM"},
      {"measurement": "pseudovirus neutralization IC80", "setting": "[4]", "value": "> 67000", "unit": "pM"},
      {"measurement": "neutralization IC50", "setting": "[5]", "value": 0.003, "unit": "µg/mL"},
      {"measurement": "neutralization IC50", "setting": "[6]", "value": "> 10", "unit": "µg/mL"},
      {"measurement": "neutralization IC50", "setting": "[7]", "value": 2.06, "unit": "µg/mL"},
      {"measurement": "neutralization IC50", "setting": "[8]", "value": "> 10", "unit": "µg/mL"},
      {"measurement": "neutralization IC50", "setting": "[9]", "value": "> 10", "unit": "µg/mL"},
      {"measurement": "neutralization IC50", "setting": "[10]", "value": "> 10", "unit": "µg/mL"},
      {"measurement": "neutralization IC50", "setting": "[11]", "value": "> 10", "unit": "µg/mL"},
      {"measurement": "neutralization IC50", "setting": "[12]", "value": "> 10", "unit": "µg/mL"},
      {"measurement": "neutralization IC50", "setting": "[13]", "value": "> 10", "unit": "µg/mL"},
      {"measurement": "neutralization IC50", "setting": "[14]", "value": "> 10", "unit": "µg/mL"},
      {"measurement": "neutralization IC50", "setting": "[15]", "value": "> 10", "unit": "µg/mL"}
    ]},
    {"substance": "AZD3152 (antibody)", "values": [
      {"measurement": "pseudovirus neutralization IC50", "setting": "[16]", "value": 0.015, "unit": "µg/mL"},
      {"measurement": "pseudotyped neutralization potency IC50", "setting": "[17]", "value": 123, "unit": "pM"},
      {"measurement": "pseudotyped neutralization potency IC80", "setting": "[17]", "value": 313, "unit": "pM"},
      {"measurement": "pseudotyped neutralization potency IC50", "setting": "[18]", "value": 102, "unit": "pM"},
      {"measurement": "pseudotyped neutralization potency IC80", "setting": "[18]", "value": 266, "unit": "pM"},
      {"measurement": "pseudotyped neutralization potency IC50", "setting": "[19]", "value": 392, "unit": "pM"},
      {"measurement": "pseudotyped neutralization potency IC80", "setting": "[19]", "value": 944, "unit": "pM"},
      {"measurement": "IC50, pseudovirus neutralization", "setting": "[20]", "value": "> 67000", "unit": "pM"},
      {"measurement": "IC80, pseudovirus neutralization", "setting": "[20]", "value": "> 67000", "unit": "pM"},
      {"measurement": "IC50, pseudovirus neutralization", "setting": "[21]", "value": "> 67000", "unit": "pM"},
      {"measurement": "IC80, pseudovirus neutralization", "setting": "[21]", "value": "> 67000", "unit": "pM"},
      {"measurement": "IC50, pseudovirus neutralization", "setting": "[22]", "value": "> 67000", "unit": "pM"},
      {"measurement": "IC80, pseudovirus neutralization", "setting": "[22]", "value": "> 67000", "unit": "pM"},
      {"measurement": "IC50, pseudovirus neutralization", "setting": "[23]", "value": "> 67000", "unit": "pM"},
      {"measurement": "IC80, pseudovirus neutralization", "setting": "[23]", "value": "> 67000", "unit": "pM"},
      {"measurement": "pseudotyped neutralization potency IC50", "setting": "[24]", "value": 96, "unit": "pM"},
      {"measurement": "pseudotyped neutralization potency IC80", "setting": "[24]", "value": 302, "unit": "pM"},
      {"measurement": "pseudotyped neutralization potency IC50", "setting": "[25]", "value": 92, "unit": "pM"},
      {"measurement": "pseudotyped neutralization potency IC80", "setting": "[25]", "value": 381, "unit": "pM"},
      {"measurement": "pseudotyped neutralization potency IC50", "setting": "[26]", "value": 120, "unit": "pM"},
      {"measurement": "pseudotyped neutralization potency IC80", "setting": "[26]", "value": 308, "unit": "pM"},
      {"measurement": "pseudotyped neutralization potency IC50", "setting": "[27]", "value": 32.2, "unit": "pM"},
      {"measurement": "pseudotyped neutralization potency IC80", "setting": "[27]", "value": 210, "unit": "pM"},
      {"measurement": "neutralization IC50", "setting": "[5]", "value": 0.015, "unit": "µg/mL"},
      {"measurement": "neutralization IC50", "setting": "[6]", "value": 0.053, "unit": "µg/mL"},
      {"measurement": "neutralization IC50", "setting": "[7]", "value": 0.045, "unit": "µg/mL"},
      {"measurement": "neutralization IC50", "setting": "[8]", "value": "> 10", "unit": "µg/mL"},
      {"measurement": "neutralization IC50", "setting": "[9]", "value": 0.766, "unit": "µg/mL"},
      {"measurement": "neutralization IC50", "setting": "[10]", "value": "> 10", "unit": "µg/mL"},
      {"measurement": "neutralization IC50", "setting": "[11]", "value": "> 10", "unit": "µg/mL"},
      {"measurement": "neutralization IC50", "setting": "[12]", "value": "> 10", "unit": "µg/mL"},
      {"measurement": "neutralization IC50", "setting": "[13]", "value": "> 10", "unit": "µg/mL"},
      {"measurement": "neutralization IC50", "setting": "[14]", "value": "> 10", "unit": "µg/mL"},
      {"measurement": "neutralization IC50", "setting": "[15]", "value": "> 10", "unit": "µg/mL"}
    ]}
  ]
}
